Reference: patent US20160251436A1 (PD 1 ACQUISITION GROUP, published 2016)
Numbering of substitutions follows the chain as printed.

B1: 100392_A6VH8_100393_A6VK5 (antibody, V domains shown)
VH: EVQLQESGAELVRPGASVTLSCKASGYTFTDYEIHWVKQTPVHGLEWIGAIDPETGGTAYNQKFKGKAILTADKSSSTAYMELRSLTSEDSAVYYCTSEKFGSSYYFDYWGQGTTFTVSS
VL: DIVMTQSTLSLPVSLGDQVSISCRSSQSIVHSDGNTYLEWYLQKPGQSPNLLIYKVSNRFSGVPDRFSGSGSGTDFTLKISRVEAEDLGVYYCFQGSHVPLTFGAGTKLELK
notes: Mouse variable regions; cloned into pFUSE-CHIg-mG1 (murine IgG1 Fc), expressed in HEK293
B2: 100244_C7VH10_100245_C8VK5 (antibody, V domains shown)
VH: EVQLQESGPELVRPGASVKMSCKASGYTFTSYWMHWVKQRPGQGLEWIGMIDPSNSETSLNQKFKDKATLNVDKSSKTAYMQLSSLTSEDSAVYYCARSRGNYAYDMDYWGQGTSVTVSS
VL: DIVITQTTAIMSASPGEKVTLTCSASSSVSSNYLYWYQQRPGSSPKLWIYSTSNLASGVPARFSGSGSGTSYSLTISSMEAEDAASYFCHQWSSYPPTFGSGTKLEIK
notes: as for B1
B3: 100244_C7VH10_100245_C8VK5m1 (antibody, V domains shown)
VH: B2 VH
VL: B2 VL with I4L, T8P
notes: Mouse variable regions; cloned into pFUSE-CHIg-mG1 (murine IgG1 Fc), expressed in HEK293; also called 244C7m1
B4: 100258_F6VH4_100259_F6VK1m1 (antibody, V domains shown)
VH: B2 VH with D52E, N55S, K77N, D106E
VL: B2 VL with I4M, T8P, I10T, S30N, R40K, L47V, I107L
notes: Mouse variable regions; cloned into pFUSE-CHIg-mG1 (murine IgG1 Fc), expressed in HEK293; also called 258F6m
B5: 100246_F7VH3_100247_F7VK2 (antibody, V domains shown)
VH: B2 VH with S54Y, N55S, S75I, K77N, Y95F
VL: B2 VL with I4L, T7S, S28G, S30N, R40K, M79V
notes: as for B1
B6: 100388_C1VH6_100389_C1VK1 (antibody, V domains shown)
VH: EVQLQESGPELVKPGASVKIPCKASGYTFTDYNMDWVKQSHGKSLEWIGDIDPNNGGIIYNQKFKGKAALTVDKSSSTAYMELRSLTSEDTAVYYCTRWRSSMDYWGQGTSVTVSS
VL: DIVMTQSPSSLSASLGDRVTISCSASQDISSYLNWYQQKPDGTVKLLIYYTSSLHSGVPSRFSGSGSGTDYSLTISNLEPEDIATYYCQQYSELPWTFGGGTKLEIK
notes: Mouse variable regions; cloned into pFUSE-CHIg-mG1 (murine IgG1 Fc), expressed in HEK293; also called 388C16A
B7: 100394_D5VH9_100395_D5VK7 (antibody, V domains shown)
VH: B6 VH with K23R, T28I, I58T, G66D, A68T, A69T, S77R, T97A
VL: B6 VL with S7T, L11M, D28G, S31N, E93Y
notes: as for B1
B8: 100392_C5VH6_100393_C5VK7 (antibody, V domains shown)
VH: B6 VH with N55S, I58S, A69T, S77R, A79V, T97A
VL: B6 VL with D28G, S31H, S76R
notes: Mouse variable regions; cloned into pFUSE-CHIg-mG1 (murine IgG1 Fc), expressed in HEK293; also called 392C5A
B9: 100388_C1VH6_100389_C1VK2 (antibody, V domains shown)
VH: B6 VH
VL: B6 VL with M4L, S7T, D28G, S31N, E93K
notes: Mouse variable regions; cloned into pFUSE-CHIg-mG1 (murine IgG1 Fc), expressed in HEK293; also called 388C16B
B10: 100392_C4VH5_100393_C4VK8 (antibody, V domains shown)
VH: B6 VH with Q39K, I58T, A69T, S77R, T97A
VL: B6 VL with M4I, D28G, S31N
notes: as for B1
B11: 100392_D2VH7_100393_D2VK6 (antibody, V domains shown)
VH: B6 VH with N55T, G57T, I58T, I59F, K63D, A69T, T97A, V112L
VL: B6 VL with S7T, D28G, S31Y, V44I, S52L
notes: as for B1
B12: 100394_G1VH1_100395_G1VK4 (antibody, V domains shown)
VH: B6 VH with S40N, G57D, I58T, A69T, S77R, T97A
VL: B6 VL with D28G, S31N, K39R, E93N
notes: as for B1
B13: 100392_C5VH6_100393_C5VK10 (antibody, V domains shown)
VH: B6 VH with N55S, I58S, A69T, S77R, A79V, T97A
VL: B6 VL with P8T, D28G, S31H, S76R
notes: Mouse variable regions; cloned into pFUSE-CHIg-mG1 (murine IgG1 Fc), expressed in HEK293; also called 392C5B
B14: 100392_H4VH9_100393_H4VK6 (antibody, V domains shown)
VH: B6 VH with M34V, I58T, I59F, A69T, Y80H, T97V
VL: B6 VL with D28G, S31N, S53N, N77D, E79A, E93Y
notes: as for B1
B15: 100388_C1VH2_100389_C1VK1 (antibody, V domains shown)
VH: B6 VH with T97A
VL: B6 VL
notes: Mouse variable regions; cloned into pFUSE-CHIg-mG1 (murine IgG1 Fc), expressed in HEK293; also called 388C12A
B16: 100388_C1VH2_100389_C1VK2 (antibody, V domains shown)
VH: B6 VH with T97A
VL: B6 VL with M4L, S7T, D28G, S31N, E93K
notes: Mouse variable regions; cloned into pFUSE-CHIg-mG1 (murine IgG1 Fc), expressed in HEK293; also called 388C12B
B17: 100411_C2VH3_100412_C2VK7 (antibody, V domains shown)
VH: EVQLQESGPGLVKPSQSLSLTCTVTGYSITSDYAWNWIRQFPGNKLEWMGYITYSGSPTYNPSLKSQFSITRDTSKNQFFLQLNSVTTEDTATYYCARGLGGHYFDYWGQGTTLTVSS
VL: DIVLTQTTATLSVTPGDRVSLSCRASQSISDYLHWYQQKSHESPRLLIKYASQSISGIPSRFSGSGSGSDFTLTVNSVEPEDVGVYYCQNGHSYPYTFGGGTKLEIK
notes: as for B1
B18: 100413_H1VH3_100414_H1VK6 (antibody, V domains shown)
VH: EVQLQESGPSLVQPSQSLSITCTVSGFSLTNYGVHWVRQSPGKGLEWLGVIWRGGNTDYNAAFMSRLSITKDNSKSQVFFKFHSLQTDDTAIYYCAASMIGGYWGQGTTLTVSS
VL: B1 VL with M4L, T8P, V19A, N50K, V90I
notes: as for B1
B19: 100394_F1VH8_100395_F1VK4 (antibody, V domains shown)
VH: B6 VH with I58T, K63N, A69T, T97A
VL: B6 VL with M4L, D28G, S31N, E93K
notes: as for B1
B20: 100392_B4VH10_100393_B4VK10 (antibody, V domains shown)
VH: B6 VH with K13R, K38M, I58T, A69T
VL: B6 VL with D28G, S31N, S53N, N77D, E79A, E93Y
notes: as for B1
B21: 100388_H4VH1_100389_H4VK4 (antibody, V domains shown)
VH: EVQLQESGPGLVAPSQSLSITCTVSGFSLTNYGVDWVRQSPGKGLEWLGVIWGVGSTNYNSALKSRLSISKDNSKSQVFLKMNSLQTDDTAMYYCASDGFVYWGQGTLVTVSS
VL: DIVLTQDELSNPVTSGESVSISCRSSKSLLYKDGKTYLNWFLQRPGQSPQVLIYFMSTRASGVSDRFSGSGSGTDFTLEISRVKAEDVGVYYCQQLVDFPFTFGSGTKLELK
notes: as for B1
B22: 100392_C3VH7_100393_C3VK10 (antibody, V domains shown)
VH: B21 VH with N31S, V54I, T87S
VL: B21 VL with L4M, S10Y, L111I
notes: as for B1

These binders were tested against T1, human Programmed Death-1 (PD-1) expressed on the cell surface (human, UniProt Q15116 25-288) (assay: cell binding, HEK293 cells expressing human PD-1, fluorescent anti-mouse secondary).
T1 construct: whole, on cells; also called CD279; Human PD-1 Expressed on HEK293 Surface
T1 sequence (Q15116 25-288): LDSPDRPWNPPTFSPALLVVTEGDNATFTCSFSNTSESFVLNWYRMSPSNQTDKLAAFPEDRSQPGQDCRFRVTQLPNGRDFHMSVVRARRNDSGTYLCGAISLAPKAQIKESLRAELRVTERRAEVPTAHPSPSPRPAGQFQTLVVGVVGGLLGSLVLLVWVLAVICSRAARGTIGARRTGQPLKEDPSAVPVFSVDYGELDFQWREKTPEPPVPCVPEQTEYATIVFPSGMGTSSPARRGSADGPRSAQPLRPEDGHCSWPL
Protocol: Recombinant antibodies from cultured supernatants were also used in cell-based binding studies. HEK293 cells were transfected (Qiagen, SuperFect) with expression plasmids encoding the Ig heavy and light chains of anti-PD-1 antibodies. After 3-5 days, recombinant antibodies in the supernatants of transfected cells were harvested. Stable HEK293 cells expressing human PD-1 or primary cells were used for the cell-based binding confirmation studies. Antibodies from cultured supernatants were assessed for binding to cell surface PD-1 using fluorescently labeled anti-mouse IgG (polyclonal) antibody (Jackson Immunoresearch).
In both studies, commercially available mouse anti-PD-1 antibody and isotype control mouse IgG1 […] were used as controls. […] Strong binding is denoted as “+++”, medium binding is denoted as “++”, and weak binding is denoted as “+”.

Row | Binder | binding result
1 | B1 | binds
2 | B2 | binds
3 | B3 | binds
4 | B4 | binds
5 | B5 | binds
6 | B6 | binds
7 | B7 | binds
8 | B8 | binds
9 | B9 | binds
10 | B10 | binds
11 | B11 | binds
12 | B12 | binds
13 | B13 | binds
14 | B14 | binds
15 | B15 | binds
16 | B16 | binds
17 | B17 | binds

What follows are binders tested against T2, PD-1-HIS (human, UniProt Q15116) (assay: ELISA, supernatant of transfected HEK293 cells on PD-1-HIS(tag), OD 450 nm, average of two experiments).
T2 construct: soluble extracellular domain; May be the same protein as m2; also called PD-1-HIS(tag); PD-1-His Tag (Sino Biological #10377-H08H-50)
T2 sequence (Q15116 25-167 limits assumed): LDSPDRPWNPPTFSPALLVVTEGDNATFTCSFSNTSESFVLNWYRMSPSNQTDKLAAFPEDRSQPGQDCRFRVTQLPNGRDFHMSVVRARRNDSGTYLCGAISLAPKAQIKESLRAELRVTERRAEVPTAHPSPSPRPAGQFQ

Row | binding result | Binder
18 | binds | B18
19 | binds | B1
20 | binds | B2
21 | binds | B3
22 | binds | B4
23 | binds | B5
24 | binds | B19
25 | binds | B6
26 | binds | B7
27 | binds | B8
28 | binds | B9
29 | binds | B10
30 | binds | B11
31 | binds | B12
32 | binds | B13
33 | binds | B14
34 | binds | B15
35 | binds | B20
36 | binds | B16
37 | binds | B21
38 | binds | B22
39 | binds | B17
